{"source": "the RNAGym collection of RNA variant scans (doi:10.7554/elife.90254)", "parents": {"B1": {"name": "LINE1-mini (parent)", "chain": "GGCAGAGCUCAACACAGCGUGGCAAAGUGGCUGUGGCUAGACUGCC"}}, "data": [{"variants_of": "B1", "assay": "self-cleavage, relative activity (ratio to wild type); higher = more cleavage; in vitro, sequencing; the parent is a self-cleaving ribozyme", "values": [{"variant": "A26C C42A", "self-cleavage": 0.16}, {"variant": "G1C A12G", "self-cleavage": 0.02}, {"variant": "C23G G40U", "self-cleavage": 0.14}, {"variant": "G7A C42G", "self-cleavage": 0.05}, {"variant": "C37G U38G", "self-cleavage": 0.01}, {"variant": "G5A A14U", "self-cleavage": 0.1}, {"variant": "G5A A14C", "self-cleavage": 0.09}, {"variant": "A24U A41G", "self-cleavage": 0.52}, {"variant": "U20C G44C", "self-cleavage": 0.09}, {"variant": "U20C G44U", "self-cleavage": 0.14}, {"variant": "A39G G40C", "self-cleavage": 0.08}, {"variant": "G27U G30A", "self-cleavage": 1.86}, {"variant": "C10A C15G", "self-cleavage": 0.04}, {"variant": "G44A C46U", "self-cleavage": 0.16}, {"variant": "G5C C15U", "self-cleavage": 0.08}, {"variant": "C8G U20C", "self-cleavage": 0.08}, {"variant": "G1U G35U", "self-cleavage": 0.17}, {"variant": "A26G G36C", "self-cleavage": 0.07}, {"variant": "C8G A26G", "self-cleavage": 0.07}, {"variant": "A4C A11U", "self-cleavage": 0.04}, {"variant": "G2A U32G", "self-cleavage": 0.2}, {"variant": "G1U C10G", "self-cleavage": 0.03}, {"variant": "U34C G36A", "self-cleavage": 0.09}, {"variant": "G30A A41G", "self-cleavage": 0.27}, {"variant": "G30U C42A", "self-cleavage": 0.12}, {"variant": "G30U C42G", "self-cleavage": 0.05}, {"variant": "G21U C42U", "self-cleavage": 0.53}, {"variant": "G22A C42G", "self-cleavage": 0.03}, {"variant": "U32G U43A", "self-cleavage": 0.04}, {"variant": "G1U C18U", "self-cleavage": 0.51}, {"variant": "C13G U38A", "self-cleavage": 0.05}, {"variant": "G5A U20A", "self-cleavage": 0.13}, {"variant": "U20C U28C", "self-cleavage": 0.54}, {"variant": "A12U A14U", "self-cleavage": 0.18}, {"variant": "A25G G40A", "self-cleavage": 0.04}, {"variant": "A24C U32G", "self-cleavage": 0.13}, {"variant": "C10G G17U", "self-cleavage": 0.07}, {"variant": "G29C C45G", "self-cleavage": 0.19}, {"variant": "G2C G40A", "self-cleavage": 0.09}, {"variant": "C23U G35U", "self-cleavage": 0.16}, {"variant": "U20A G27A", "self-cleavage": 0.83}, {"variant": "A14G A24C", "self-cleavage": 0.27}, {"variant": "G22A U32G", "self-cleavage": 0.14}, {"variant": "U20G G29A", "self-cleavage": 1.02}, {"variant": "U43A C46G", "self-cleavage": 0.14}, {"variant": "A6C G22A", "self-cleavage": 0.66}, {"variant": "A4G U43G", "self-cleavage": 1.35}, {"variant": "A6C A14G", "self-cleavage": 0.16}, {"variant": "U9C C15G", "self-cleavage": 0.04}, {"variant": "G7C U38A", "self-cleavage": 0.07}, {"variant": "G30A C42U", "self-cleavage": 0.6}, {"variant": "C3A U34C", "self-cleavage": 0.14}, {"variant": "G7U U32C", "self-cleavage": 0.22}, {"variant": "G1U C15A", "self-cleavage": 0.08}, {"variant": "C15G U38G", "self-cleavage": 0.03}, {"variant": "G22U U32C", "self-cleavage": 0.6}, {"variant": "C23U C45A", "self-cleavage": 0.47}, {"variant": "G2U A6G", "self-cleavage": 0.03}, {"variant": "G2U A25U", "self-cleavage": 0.08}, {"variant": "A25U A26C", "self-cleavage": 1.79}, {"variant": "C13A G22U", "self-cleavage": 0.11}, {"variant": "G30A G35U", "self-cleavage": 0.09}, {"variant": "A6C G35U", "self-cleavage": 0.09}, {"variant": "G35C U43G", "self-cleavage": 0.09}, {"variant": "A4C G33U", "self-cleavage": 0.06}, {"variant": "A11U G29C", "self-cleavage": 0.09}, {"variant": "C3U C10U", "self-cleavage": 0.15}, {"variant": "C3G C15G", "self-cleavage": 0.04}, {"variant": "G5U A12C", "self-cleavage": 0.04}, {"variant": "G7C G44A", "self-cleavage": 0.09}, {"variant": "G2C C18U", "self-cleavage": 0.09}, {"variant": "U28A", "self-cleavage": 0.71}, {"variant": "A4U U28G", "self-cleavage": 0.17}, {"variant": "G19U A26U", "self-cleavage": 0.56}, {"variant": "U9A G40C", "self-cleavage": 0.08}, {"variant": "C42G C45A", "self-cleavage": 0.04}, {"variant": "A24U G30C", "self-cleavage": 0.62}, {"variant": "G1C G27C", "self-cleavage": 0.14}, {"variant": "G5C A24C", "self-cleavage": 0.04}, {"variant": "A6G C37A", "self-cleavage": 0.05}, {"variant": "A14C G17C", "self-cleavage": 0.04}, {"variant": "C10G G44U", "self-cleavage": 0.04}, {"variant": "C15U A39G", "self-cleavage": 0.11}, {"variant": "C10G U28C", "self-cleavage": 0.12}, {"variant": "G17U U20G", "self-cleavage": 0.12}, {"variant": "A11C C23A", "self-cleavage": 0.07}, {"variant": "U9A U32G", "self-cleavage": 0.19}, {"variant": "G17U C46G", "self-cleavage": 0.12}, {"variant": "A6C U20G", "self-cleavage": 0.35}, {"variant": "C10U C18U", "self-cleavage": 0.34}, {"variant": "U9G C37A", "self-cleavage": 0.22}, {"variant": "G22C C23A", "self-cleavage": 0.92}, {"variant": "G2U G36A", "self-cleavage": 0.05}, {"variant": "C31G C46A", "self-cleavage": 0.06}, {"variant": "A6U C15G", "self-cleavage": 0.07}, {"variant": "C8A A24C", "self-cleavage": 0.31}, {"variant": "C8G C13A", "self-cleavage": 0.11}, {"variant": "C10G G40A", "self-cleavage": 0.01}, {"variant": "U34G", "self-cleavage": 0.24}, {"variant": "C8U C23G", "self-cleavage": 0.29}, {"variant": "A16C G27A", "self-cleavage": 0.26}, {"variant": "G22A C31A", "self-cleavage": 0.2}, {"variant": "A24G G44U", "self-cleavage": 0.15}, {"variant": "C10U A39C", "self-cleavage": 0.17}, {"variant": "A24C A41C", "self-cleavage": 0.04}, {"variant": "A14G A25C", "self-cleavage": 0.18}, {"variant": "U9C A39G", "self-cleavage": 0.02}, {"variant": "C15G G22C", "self-cleavage": 0.03}, {"variant": "A24G C46A", "self-cleavage": 1.75}, {"variant": "C10A G17A", "self-cleavage": 0.04}, {"variant": "U38C G44A", "self-cleavage": 0.3}, {"variant": "C3A A39G", "self-cleavage": 0.57}, {"variant": "C18U A24G", "self-cleavage": 1.01}, {"variant": "C8G", "self-cleavage": 0.13}, {"variant": "A11C G33U", "self-cleavage": 0.04}, {"variant": "A12G G44C", "self-cleavage": 0.03}, {"variant": "U20G C46U", "self-cleavage": 0.44}, {"variant": "G1U U38C", "self-cleavage": 0.2}, {"variant": "A14C U43C", "self-cleavage": 0.04}, {"variant": "G21U U28G", "self-cleavage": 0.52}, {"variant": "A24C G35U", "self-cleavage": 0.05}, {"variant": "G5A A25C", "self-cleavage": 0.07}, {"variant": "G2C C31U", "self-cleavage": 0.08}, {"variant": "G19C G29C", "self-cleavage": 0.54}, {"variant": "C10G G35A", "self-cleavage": 0.03}, {"variant": "C18A C46A", "self-cleavage": 0.95}, {"variant": "G17U G22A", "self-cleavage": 0.26}, {"variant": "A14U G40C", "self-cleavage": 0.08}, {"variant": "U9C C13U", "self-cleavage": 0.03}, {"variant": "G27U G36A", "self-cleavage": 0.4}, {"variant": "C18G A39G", "self-cleavage": 0.07}, {"variant": "U9G G30C", "self-cleavage": 0.06}, {"variant": "A11C C15G", "self-cleavage": 0.02}, {"variant": "G1C G7A", "self-cleavage": 0.04}, {"variant": "C15A A41U", "self-cleavage": 0.05}, {"variant": "A11U C37U", "self-cleavage": 0.01}, {"variant": "G17C C45U", "self-cleavage": 0.84}, {"variant": "A16G C37A", "self-cleavage": 0.08}, {"variant": "A12U C37U", "self-cleavage": 0.02}, {"variant": "C10A U20A", "self-cleavage": 0.05}, {"variant": "G5A U34C", "self-cleavage": 0.08}, {"variant": "U20C G35C", "self-cleavage": 0.03}, {"variant": "G27U A39U", "self-cleavage": 0.56}, {"variant": "A6U G27C", "self-cleavage": 0.38}, {"variant": "C37G G44C", "self-cleavage": 0.03}, {"variant": "G36U U38C", "self-cleavage": 0.11}, {"variant": "A12U G17U", "self-cleavage": 0.09}, {"variant": "G1C U43C", "self-cleavage": 0.03}, {"variant": "A11G C37U", "self-cleavage": 0.05}, {"variant": "G2A A41G", "self-cleavage": 0.4}, {"variant": "G7C G30C", "self-cleavage": 0.13}, {"variant": "U38G C42G", "self-cleavage": 0.02}, {"variant": "G2A C45A", "self-cleavage": 1.08}, {"variant": "U9G A11G", "self-cleavage": 0.02}, {"variant": "A14C G30C", "self-cleavage": 0.07}, {"variant": "A24C A26G", "self-cleavage": 0.33}, {"variant": "G5U C10G", "self-cleavage": 0.03}, {"variant": "G1C G2C", "self-cleavage": 0.15}, {"variant": "G17U U32C", "self-cleavage": 0.18}, {"variant": "C37G C42U", "self-cleavage": 0.02}, {"variant": "C15A U38C", "self-cleavage": 0.07}, {"variant": "G7A G17A", "self-cleavage": 0.16}, {"variant": "G7A G17U", "self-cleavage": 0.12}, {"variant": "C13G A41U", "self-cleavage": 0.17}, {"variant": "U34A A41G", "self-cleavage": 0.05}, {"variant": "U34A A41U", "self-cleavage": 0.05}, {"variant": "A11C G27C", "self-cleavage": 0.04}]}]}
